Biological target: the molecule itself
Assay: SDS-PAGE with Coomassie staining and anti-His immunoblot; purified His-tagged recombinant TgDIP13 resolved on a gel; bands at ~18 kDa (monomer) and ~36 kDa (dimer)

B1: His-tagged recombinant TgDIP13 (Toxoplasma gondii SSNA1/DIP13 homologue) (natural protein, UniProt A0A125YRV3 1-150, looked up)
chain: MTSTTNSNLHNYNHELVACIDDLRRKREEVHRQIIKEEEDRAKVQKEIALLQERLQKLNDSITRKIQARNEYDKTILETEAAYTKILESAQTLLHVLKRESVHLGRKTSGDRAELPGIGITGVGVDYSPNSVSELSHRRAEKGKPTAGAG
notes: TgDIP13, the SSNA1/DIP13 homologue of Toxoplasma gondii (ToxoDB entry TGME49_295450); the TgDIP13 gene was amplified from T. gondii cDNA with primers ML2448/ML2449 and cloned NdeI/XhoI into pET24a+; Apparent mass of the monomer ~18 kDa; also called T. gondii SSNA1/DIP13 homologue; not shown: His6, C-terminal, kept
  stoichiometry N: 2

Source: article PMC4914967, “An evolutionarily conserved SSNA1/DIP13 homologue is a component of both basal and apical complexes of Toxoplasma gondii” (Scientific Reports, 2016)
